Experimental data published in patent publication US20250333484A1 (US Dept. of Health and Human Services, published 2025).

How the values were obtained:
[1] = target: T1, 676 aa long full-length GP probe (EBOV glycoprotein) (Ebola virus (EBOV), UniProt Q05320 33-676)
T1 sequence: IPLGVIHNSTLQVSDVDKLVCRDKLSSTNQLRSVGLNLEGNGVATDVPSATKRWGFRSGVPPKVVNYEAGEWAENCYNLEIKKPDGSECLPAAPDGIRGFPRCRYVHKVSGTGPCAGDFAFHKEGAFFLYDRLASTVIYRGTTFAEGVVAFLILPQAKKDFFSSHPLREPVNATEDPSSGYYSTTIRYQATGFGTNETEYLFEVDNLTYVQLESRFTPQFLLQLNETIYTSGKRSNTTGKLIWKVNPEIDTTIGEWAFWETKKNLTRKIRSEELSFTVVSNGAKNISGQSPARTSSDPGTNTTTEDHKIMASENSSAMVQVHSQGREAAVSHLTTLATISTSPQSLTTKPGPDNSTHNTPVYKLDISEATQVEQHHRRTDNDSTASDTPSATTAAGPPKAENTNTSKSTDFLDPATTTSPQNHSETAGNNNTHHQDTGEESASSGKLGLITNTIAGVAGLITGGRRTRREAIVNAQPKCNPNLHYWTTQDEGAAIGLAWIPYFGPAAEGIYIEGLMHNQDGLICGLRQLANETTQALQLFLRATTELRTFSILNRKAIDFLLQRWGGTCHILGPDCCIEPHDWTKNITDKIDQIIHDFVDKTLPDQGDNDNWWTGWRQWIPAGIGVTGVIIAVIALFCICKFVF

[2] = target: T1, 676 aa long full-length GP probe (EBOV …); assay: BLI saturation binding, full probe on sensor
[3] = target: T1, 676 aa long full-length GP probe (EBOV …); assay: BLI kinetics on full-length GP with the mAb114 site blocked

B1: BiSp107 (mAb114×A09) CrossMab bispecific IgG (bispecific antibody)
heavy 1: not shown
light 1: DIQMTQSPSSLSASVGDRITITCRASQAFDNYVAWYQQRPGKVPKLLISAASALHAGVPSRFSGSGSGTHFTLTISSLQPEDVATYYCQNYNSAPLTFGGGTKVEIKSSASTKGPSVFPLAPSSKSTSGGTAALGCLVKDYFPEPVTVSWNSGALTSGVHTFPAVLQSSGLYSLSSVVTVPSSSLGTQTYICNVNHKPSNTKVDKKVEPKSC
heavy 2: not shown
light 2: SYELTQPPSVSVSPGQTATITCSGDKLGDKYTSWFQQRPGQSPLLVIYQDNKRPSGLPARFSGSNSGNTATLTISGTQAMDEADYLCQVWDSGAVFGGGTKLTVLGQPKAAPSVTLFPPSSEELQANKATLVCLISDFYPGAVTVAWKADSSPVKAGVETTTPSKQSNNKYAASSYLSLTPEQWKSHRSYSCQVTHEGSTVEKTVAPTECS
[1]
  fold difference in binding kinetics against parental Fab: ≤ 3 fold

B2: mAb114 (parental IgG) (antibody, V domains shown)
VH: EVQLVESGGGLIQPGGSLRLSCAASGFALRMYDMHWVRQTIDKRLEWVSAVGPSGDTYYADSVKGRFAVSRENAKNSLSLQMNSLTAGDTAIYYCVRSDRGVAGLFDSWGQGILVTVSS
VL: DIQMTQSPSSLSASVGDRITITCRASQAFDNYVAWYQQRPGKVPKLLISAASALHAGVPSRFSGSGSGTHFTLTISSLQPEDVATYYCQNYNSAPLTFGGGTKVEIKS
[2]
  fold binding response at saturation against A09: 2 fold

B3: FabA09 (Fab of parental mAbA09) (Fab, V domains shown)
VH: QVQLQESGPGLVKPSETLSLTCVVSGGILSSFYWNWIRQPPGKGLEWIGNIYYSGSPNYNASFQSRVAISVDTSKNQISLNLKSVTAADTAMYYCVRASRAYLWGSYRPTALDLWGQGSLVTVSS
VL: SYELTQPPSVSVSPGQTATITCSGDKLGDKYTSWFQQRPGQSPLLVIYQDNKRPSGLPARFSGSNSGNTATLTISGTQAMDEADYLCQVWDSGAVFGGGTKLTVL
[3]
  fold on-rate against BiSp107: 3.4 fold
